Data reported in article PMC12416549 (2024).
Residue numbers refer to the chain shown, from its start. In names and notes the source's numbering stands.

T1: TNFR1 (Homo sapiens, UniProt P19438)
T1 chain: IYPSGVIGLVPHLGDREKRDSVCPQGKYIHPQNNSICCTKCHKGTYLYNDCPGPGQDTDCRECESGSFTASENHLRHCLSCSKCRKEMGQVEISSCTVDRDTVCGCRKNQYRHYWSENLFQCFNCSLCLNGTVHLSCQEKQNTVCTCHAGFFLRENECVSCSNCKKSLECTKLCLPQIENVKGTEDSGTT

B1: K35L (designed binder)
chain: MTLQELLREEALRRAEAEAFRYALELLAEKFPEQLEYLLDLAEEIESQIRSLSGVDVEDVRKFLDKEWAWVKELLAEHPAELAEVEAARAARLAELRAEVEAKVAA
B2: A106P (designed binder)
chain: B1 chain with L35K, A106P
B3: A15N (designed binder)
chain: B1 chain with A15N, L35K
B4: K30T (designed binder)
chain: B1 chain with K30T, L35K
B5: E18L (designed binder)
chain: B1 chain with E18L, L35K
B6: E10V (designed binder)
chain: B1 chain with E10V, L35K
B7: D65P (designed binder)
chain: B1 chain with L35K, D65P
B8: K30M (designed binder)
chain: B1 chain with K30M, L35K
B9: E99L (designed binder)
chain: B1 chain with L35K, E99L
B10: A90Q (designed binder)
chain: B1 chain with L35K, A90Q
B11: L3G (designed binder)
chain: B1 chain with L3G, L35K
B12: A28Q (designed binder)
chain: B1 chain with A28Q, L35K
B13: R89S (designed binder)
chain: B1 chain with L35K, R89S
B14: L26N (designed binder)
chain: B1 chain with L26N, L35K
B15: E46D (designed binder)
chain: B1 chain with L35K, E46D
B16: D40Y (designed binder)
chain: B1 chain with L35K, D40Y
B17: D40K (designed binder)
chain: B1 chain with L35K, D40K
B18: A90S (designed binder)
chain: B1 chain with L35K, A90S
B19: L41C (designed binder)
chain: B1 chain with L35K, L41C
B20: A90W (designed binder)
chain: B1 chain with L35K, A90W
B21: L27Q (designed binder)
chain: B1 chain with L27Q, L35K
B22: L96G (designed binder)
chain: B1 chain with L35K, L96G
B23: L24H (designed binder)
chain: B1 chain with L24H, L35K
B24: V71K (designed binder)
chain: B1 chain with L35K, V71K
B25: E101C (designed binder)
chain: B1 chain with L35K, E101C
B26: V85D (designed binder)
chain: B1 chain with L35K, V85D
B27: H78M (designed binder)
chain: B1 chain with L35K, H78M
B28: R50V (designed binder)
chain: B1 chain with L35K, R50V
B29: A102G (designed binder)
chain: B1 chain with L35K, A102G
B30: L41I (designed binder)
chain: B1 chain with L35K, L41I
B31: A11G (designed binder)
chain: B1 chain with A11G, L35K
B32: A17V (designed binder)
chain: B1 chain with A17V, L35K
B33: M1I (designed binder)
chain: B1 chain with M1I, L35K
B34: E43H (designed binder)
chain: B1 chain with L35K, E43H
B35: F63V (designed binder)
chain: B1 chain with L35K, F63V
B36: L64K (designed binder)
chain: B1 chain with L35K, L64K
B37: L6A (designed binder)
chain: B1 chain with L6A, L35K
B38: A69M (designed binder)
chain: B1 chain with L35K, A69M
B39: R13H (designed binder)
chain: B1 chain with R13H, L35K
B40: E5D (designed binder)
chain: B1 chain with E5D, L35K
B41: L52C (designed binder)
chain: B1 chain with L35K, L52C
B42: I49C (designed binder)
chain: B1 chain with L35K, I49C
B43: A87Y (designed binder)
chain: B1 chain with L35K, A87Y
B44: A87M (designed binder)
chain: B1 chain with L35K, A87M
B45: F63Q (designed binder)
chain: B1 chain with L35K, F63Q
B46: L52S (designed binder)
chain: B1 chain with L35K, L52S
B47: E10P (designed binder)
chain: B1 chain with E10P, L35K
B48: L24M (designed binder)
chain: B1 chain with L24M, L35K
B49: S47Q (designed binder)
chain: B1 chain with L35K, S47Q
B50: E95N (designed binder)
chain: B1 chain with L35K, E95N
B51: V104P (designed binder)
chain: B1 chain with L35K, V104P
B52: L96V (designed binder)
chain: B1 chain with L35K, L96V
B53: L12M (designed binder)
chain: B1 chain with L12M, L35K
B54: E16W (designed binder)
chain: B1 chain with E16W, L35K
B55: R97E (designed binder)
chain: B1 chain with L35K, R97E
B56: E67P (designed binder)
chain: B1 chain with L35K, E67P
B57: R97S (designed binder)
chain: B1 chain with L35K, R97S
B58: E18S (designed binder)
chain: B1 chain with E18S, L35K
B59: I45A (designed binder)
chain: B1 chain with L35K, I45A

Target: T1, TNFR1
Assay: yeast display SC50

| apparent Kd (screen) [pM] | Binder |
| --- | --- |
| 405 | B1 |
| 539 | B2 |
| 653 | B3 |
| 653 | B4 |
| 539 | B5 |
| 956 | B6 |
| 26900 | B7 |
| 539 | B8 |
| 653 | B9 |
| 593 | B10 |
| 20200 | B11 |
| 4830 | B12 |
| 790 | B13 |
| 490 | B14 |
| 539 | B15 |
| 11400 | B16 |
| 9410 | B17 |
| 490 | B18 |
| 2480 | B19 |
| 539 | B20 |

| apparent Kd (screen) [pM] | Binder |
| --- | --- |
| 446 | B21 |
| 2480 | B22 |
| 1540 | B23 |
| 12500 | B24 |
| 490 | B25 |
| 6430 | B26 |
| 490 | B27 |
| 1400 | B28 |
| 653 | B29 |
| 2730 | B30 |
| 956 | B31 |
| 446 | B32 |
| 490 | B33 |
| 718 | B34 |
| 1270 | B35 |
| 20200 | B36 |
| 1540 | B37 |
| 790 | B38 |
| 405 | B39 |
| 490 | B40 |

| apparent Kd (screen) [pM] | Binder |
| --- | --- |
| 2480 | B41 |
| 2480 | B42 |
| 790 | B43 |
| 490 | B44 |
| 2730 | B45 |
| 1160 | B46 |
| 12500 | B47 |
| 718 | B48 |
| 956 | B49 |
| 718 | B50 |
| 718 | B51 |
| 446 | B52 |
| 593 | B53 |
| 1160 | B54 |
| 956 | B55 |
| 5310 | B56 |
| 956 | B57 |
| 405 | B58 |
| 13800 | B59 |
